This is an account of results in paper PMC10518340, “Secreted LRPAP1 binds and triggers IFNAR1 degradation to facilitate virus evasion from cellular innate immunity” (Signal Transduction and Targeted Therapy, 2023).

Test [1] concerns HBV. The test is described as follows: HBV level in HepAD38 cells, immunoblot. The following applies: α2M 20 nM, 24 h. Type of test: cell-based. On the technique in general: Immunoblotting shows a protein as a band on a membrane.
In test [2] the test system is EV71. Kind of test: EV71 infection of RD cells (viral RNA, titer, viral protein, CPE). The conditions noted are these: α2M 20 nM, added 3 h post infection MOI 10, 6 h.
Test [3] concerns IFNAR1. Kind of test: IFNAR1 protein level, immunoblot, HEK-293T cells. The test is classed as cell-based, human. The conditions noted are these: HEK-293T, rLRPAP1 200 nM, α2M 20 nM, 1 h.
Test [4] deals with DNA and RNA viruses. The test is described as follows: Antiviral effect against DNA and RNA viruses (summary). The test is classed as cell-based. The following applies: dosages within the biosafety range (<1.5 mg/100 ml). As for the experimental part: Fig. 6 Inhibition of extracellular LRPAP1 reinforces the host cell’s innate immunity against multiple viruses’ infection. a–c RD cells were transfected with scramble siRNA or siLRPAP1 for 24 h. Then the cells were infected with HCoV-OC43 at an MOI of 1 for 72 h or HSV-1 at the indicated MOI for 24 h. Viral RNA level of HCoV-OC43 was analysed by RT-qPCR (a). Viral titer of HCoV-OC43 was measured by TCID50 assay (b). The relative viral DNA level of HSV-1 was analysed by RT-qPCR (c). d Immunoblots of lysates in HepAD38 cells transfected with scramble siRNA or siLRPAP1 for 48 h. e RD cells were transfected with scramble siRNA or siLRPAP1-1/-2 (si-1, si-2) for 24 h. Then the cells were infected with ZIKV at an MOI of 1 for 24 h. Viral RNA level of ZIKV was analysed by RT-qPCR. f, g The inhibitory effect of anti-LRPAP1 for HSV-1 infection. […] Densitometric analysis of VP1 levels in Fig. 6(i) was quantified and normalized with GAPDH using ImageJ (j). Densitometric analysis of HSV Envelope levels in Fig. 6(k) was quantified and normalized with GAPDH using ImageJ (l). m The schematic diagram of virus circumventing type I IFN signaling through LRPAP1.
a, The effect of siLRPAP1 on the infection of HCoV-OC43. […] Viral RNA level of HCoV-OC43 was analysed by RT-qPCR. b, RD cells were transfected with scramble siRNA or siLRPAP1 for 24 h, and cells were then inoculated with HCoV-OC43 at an MOI of 1 for 72 h. […]

In test [5] the test system is HCoV-OC43. Kind of test: HCoV-OC43 infection of RD cells (viral RNA, TCID50, CPE). The conditions noted are these: α2M 20 nM pre-treatment 1 h, MOI 1, 72 h.
For test [6], the system named is HSV-1. Kind of test: HSV-1 infection of RD cells (viral DNA, TCID50, viral protein, CPE). The following applies: α2M 20 nM, added 3 h post infection MOI 10, 21 h.
Test [7] has as its system IFNAR1. Kind of test: IFNAR1 protein level, immunoblot / immunofluorescence, RD cells. Type of test: cell-based. The following applies: EV71 or HSV-1 MOI 10; α2M 20 nM, LF 400 nM.
Test [8] deals with IFNAR1. The test is described as follows: IFNAR1 protein level, HepAD38 cells, immunoblot. Type of test: cell-based. The conditions noted are these: siRNA or overexpression 48 h; LF 400 nM 24 h.

B1: alpha-2-macroglobulin (protein, UniProt P01023 24-1474, looked up)
Alpha-2-macroglobulin: SVSGKPQYMVLVPSLLHTETTEKGCVLLSYLNETVTVSASLESVRGNRSLFTDLEAENDVLHCVAFAVPKSSSNEEVMFLTVQVKGPTQEFKKRTTVMVKNEDSLVFVQTDKSIYKPGQTVKFRVVSMDENFHPLNELIPLVYIQDPKGNRIAQWQSFQLEGGLKQFSFPLSSEPFQGSYKVVVQKKSGGRTEHPFTVEEFVLPKFEVQVTVPKIITILEEEMNVSVCGLYTYGKPVPGHVTVSICRKYSDASDCHGEDSQAFCEKFSGQLNSHGCFYQQVKTKVFQLKRKEYEMKLHTEAQIQEEGTVVELTGRQSSEITRTITKLSFVKVDSHFRQGIPFFGQVRLVDGKGVPIPNKVIFIRGNEANYYSNATTDEHGLVQFSINTTNVMGTSLTVRVNYKDRSPCYGYQWVSEEHEEAHHTAYLVFSPSKSFVHLEPMSHELPCGHTQTVQAHYILNGGTLLGLKKLSFYYLIMAKGGIVRTGTHGLLVKQEDMKGHFSISIPVKSDIAPVARLLIYAVLPTGDVIGDSAKYDVENCLANKVDLSFSPSQSLPASHAHLRVTAAPQSVCALRAVDQSVLLMKPDAELSASSVYNLLPEKDLTGFPGPLNDQDNEDCINRHNVYINGITYTPVSSTNEKDMYSFLEDMGLKAFTNSKIRKPKMCPQLQQYEMHGPEGLRVGFYESDVMGRGHARLVHVEEPHTETVRKYFPETWIWDLVVVNSAGVAEVGVTVPDTITEWKAGAFCLSEDAGLGISSTASLRAFQPFFVELTMPYSVIRGEAFTLKATVLNYLPKCIRVSVQLEASPAFLAVPVEKEQAPHCICANGRQTVSWAVTPKSLGNVNFTVSAEALESQELCGTEVPSVPEHGRKDTVIKPLLVEPEGLEKETTFNSLLCPSGGEVSEELSLKLPPNVVEESARASVSVLGDILGSAMQNTQNLLQMPYGCGEQNMVLFAPNIYVLDYLNETQQLTPEIKSKAIGYLNTGYQRQLNYKHYDGSYSTFGERYGRNQGNTWLTAFVLKTFAQARAYIFIDEAHITQALIWLSQRQKDNGCFRSSGSLLNNAIKGGVEDEVTLSAYITIALLEIPLTVTHPVVRNALFCLESAWKTAQEGDHGSHVYTKALLAYAFALAGNQDKRKEVLKSLNEEAVKKDNSVHWERPQKPKAPVGHFYEPQAPSAEVEMTSYVLLAYLTAQPAPTSEDLTSATNIVKWITKQQNAQGGFSSTQDTVVALHALSKYGAATFTRTGKAAQVTIQSSGTFSSKFQVDNNNRLLLQQVSLPELPGEYSMKVTGEGCVYLQTSLKYNILPEKEEFPFALGVQTLPQTCDEPKAHTSFQISLSVSYTGSRSASNMAIVDVKMVSGFIPLKPTVKMLERSNHVSRTEVSSNHVLIYLDKVSNQTLSLFFTVLQDVPVRDLKPAIVKVYDYYETDEFAIAEYNAPCSKDLGNA
In the case of B1, the “HBV propagation (HBc)” value in test [1] was “significantly inhibited both DNA and RNA virus propagation”. For the same molecule, the “EV71 propagation (VP1)” value in test [2] was “significantly inhibited both DNA and RNA virus propagation”. The “IFNAR1 level in cells treated with rLRPAP1” value in test [3] is recorded as “markedly upregulated IFNAR1”. In addition, the antiviral effect result in test [4] is “promising antiviral effects”. Also, the HCoV-OC43 propagation entry in test [5] was “significantly inhibited both DNA and RNA virus propagation”. Moreover, the “HSV-1 propagation (Envelope)” value in test [6] was “significantly inhibited both DNA and RNA virus propagation”. The “IFNAR1 level under viral infections” value in test [7] was “markedly upregulated IFNAR1”.

B2: lactoferrin (protein, UniProt P02788 20-710, looked up)
Lactotransferrin: GRRRSVQWCAVSQPEATKCFQWQRNMRKVRGPPVSCIKRDSPIQCIQAIAENRADAVTLDGGFIYEAGLAPYKLRPVAAEVYGTERQPRTHYYAVAVVKKGGSFQLNELQGLKSCHTGLRRTAGWNVPIGTLRPFLNWTGPPEPIEAAVARFFSASCVPGADKGQFPNLCRLCAGTGENKCAFSSQEPYFSYSGAFKCLRDGAGDVAFIRESTVFEDLSDEAERDEYELLCPDNTRKPVDKFKDCHLARVPSHAVVARSVNGKEDAIWNLLRQAQEKFGKDKSPKFQLFGSPSGQKDLLFKDSAIGFSRVPPRIDSGLYLGSGYFTAIQNLRKSEEEVAARRARVVWCAVGEQELRKCNQWSGLSEGSVTCSSASTTEDCIALVLKGEADAMSLDGGYVYTAGKCGLVPVLAENYKSQQSSDPDPNCVDRPVEGYLAVAVVRRSDTSLTWNSVKGKKSCHTAVDRTAGWNIPMGLLFNQTGSCKFDEYFSQSCAPGSDPRSNLCALCIGDEQGENKCVPNSNERYYGYTGAFRCLAENAGDVAFVKDVTVLQNTDGNNNEAWAKDLKLADFALLCLDGKRKPVTEARSCHLAMAPNHAVVSRMDKVERLKQVLLHQQAKFGRNGSDCPDKFCLFQSETKNLLFNDNTECLARLHGKTTYEKYLGPQYVAGITNLKKCSTSPLLEACEFLRK
For the molecule B2, the “IFNAR1 expression in HepAD38 cells” value in test [8] is recorded as “but not LF”. In addition, the “IFNAR1 level under viral infections” value in test [7] was “but not LF”.
